From the nanobody polyreactivity screen of Harvey et al. (2022)

Assay: yeast display, Sf9 membrane polyspecificity reagent, FACS + sequencing; frameworks hold sequencing errors
Summary of the method: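 Sorting gates, low and high (top ~1%), were placed on anti-HA fluorescence to track expression and on streptavidin fluorescence to track reagent binding. A clone's polyreactivity label is taken from the gate it came out of. The reagent was 10% biotinylated, detergent-solubilized Sf9 membrane, applied for 1 hour at 4 °C to galactose-induced yeast display cells.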

Row | Sequence | polyreactivity (PSR sort gate)
1 | QDQLVESRVGLVQAGGSLRLSCAATGFTFLSYTMGWYIQAPCKERELLADNTRSGGSTYYADSVKGRFTISRDNAKNSVYLQMNSLKPEDTAVYFCAARYSYDRYRGSQQFYYWGQGTQVTVSS | high polyreactivity
2 | QDQLVESVGGIVQAGGSLRLRCAASGFIYSRNAIGWYSEAPGKDREFVARIRWSVGSTYYADSVKGRFTISRENAKNTVYLMMTSLKPEVTAVYSCAADYYKRYKYLYDYWGQGTQVTVSS | high polyreactivity
3 | QDQLVESVGGLVQAGGSLRLSCAASGSIFIGYAMGWYRQAPGKERELVAAITSGGSTYADSVKGRFTISRDNAKNTVYLQMNSLKPEDTAVYYCAARFFLVTLDYCGQGTQVTVSS | low polyreactivity
4 | QDQLVESWGGLDKAGGSLLLICDASGSTFKFYTMGWYRQAPGKERELVATIDWSGVSTYYADSVKGRFTISRDNAKNTVYLQMNSLKPEDTAVYYCAARSLRLVGPYYYWGQGTQVTVSS | high polyreactivity
5 | QDQLVETLGGLVQAGASLRLSCAASGSIFGNNAMVWYRQEPGKERELVAAISGTGGTTYADSVKGRFTISRDNAKNTVYLQMNSLKPEDTAVYYWALRVWVRDYPFGYARYGYWGQGTQVTVSS | low polyreactivity
6 | QDQLVQSGGGLVQAGGSLRLSCAASAITFVIYSMGWYRQAPGKERELVAAIDGSDGSTYYADSVKGRFTISRDTAKNTVYLQMNSLKPEDTAVYYCNADTGGYYVTGSYLYNEYDYWGQGTQVTVSS | low polyreactivity
7 | QDQLVQSGGGLVQAGGTLRLSCAASGRIIYVNAMGWYRQAPGKERDFVATITRGGSTYYADSVKGRFTISRDNAKNTVYFQMNSLQPEDTAVYYCATVRGGWKGRGHRNDYWGQGTQVTVSS | high polyreactivity
8 | QDQQVESGGGLVQAGGSLRLSCAASGFTFRKKAKGWYRQAPGKERELVAAISASGGSTYYADSVKGRFTISRDNAKNTVYLQMNSLKPEDTDVFYCARDRSNAFNYWGQGTQVTVSS | high polyreactivity
9 | QEKHVESGGGLVQAGGSLLLSCAASGLTFYHNAMGWYRQAPGKERELVAAISSGGTTNYADSVKGRFTISRDNAKNTVYLQMNSLTPEDTAVYYCAARGWGPTRAYDYWGQGTQVTLSS | high polyreactivity
10 | QEKLQESGSGLVQAGGSLRLSCAASGNIFQDWVMRWYRQAPGKERELVAAISPGAITYYADSVKGRFTISRDNAKNTVYLQTNSLKPEDTAVYYCAAYYIVEYLHGYWGQGTRVTVSS | low polyreactivity
11 | QEQLLESGGGLLQAGGSLRLSCAASGSNFVSVTMGWYRQATGKELELVASIGRGSTTNHADSVKGRFTISRDNAKNIVYLLMNSLKPEDTAVYYCAALESYGKYHGYWGQGTQVTVSS | low polyreactivity
12 | QEQLQERGGGLVQAGGSQRLGCAASGNISDAGYMGLYRQAPGKERELVAAIAAGSNTNYADSVKGRFTISRDNAKNTVYLQMNSLKPEDTAVFYCAVASYALVQYEYWGQGTQVTVNS | low polyreactivity
13 | QEQLQESGGCLVQAGGSLRLSCAASGSIFYVYGMGWFRQPPGKELELVAGINDGTNTNYADSVRGRFTISRDNAKNTVLLQMNSLKPEDTAVYYCAADGNCYQAHEYWGVGTQVTVSS | high polyreactivity
14 | QEQLQESGGCPVLAGGSLRLSCAASGTIFVRLDMGWYRQAPGKEREFVATIGSGSSTYYADSVKGSFTISRDNVKNTVYLQMNSLKPEDTAVYYCAVSAAEQSRHYYWDQGTQVTVSS | low polyreactivity
15 | QEQLQESGGGLVLAGGSLSLSCPESGYISWSFTMGWYRKAPGKEREFVAGITYGGITYYADSVKGRFTIRRDNGKNTVYLQLNSLKPEDTAVFYCAAPQTYPYVYVYWGQGTQVTVCS | high polyreactivity
16 | QEQLQESGGGLVQAGDSPRLSCAESGYISARTGMGSYRQAPGKEREFVAGIASGTSTHYADSVKGRFTISRDNAKNAVYLQMNSLKPEDTAVYYCAKDYRYIFIYPYGWTRYDYWGQGTQVTVSS | low polyreactivity
17 | QEQLQESGGGLVQAGGDLRLSCAESGNIFRDYIMGWYRQAPGKEREFVAGIDRGANTNYADSVKGRFTISRDNAKNTVYLQMNSLKPEDTAVYYCAVHTAIVPDFIYWGQGTQVTVSS | low polyreactivity
18 | QEQLQESGGGLVQAGGSLRLSCAASGNIYDADIMGWYRQAPGKERELVTSITDGGSTNYADSVKGRFTISRDNAKNTVYLQMNSLKPEDTAVYYCAAIAYPDIPTSFDYNSDYSYWGQGTQVTVSS | low polyreactivity
19 | QEQLQESGGGLVQAGGSLRLSCAASGSISGSSTMGWYRQAPGKERELVASIAVGANTNYADSAKGRFTISRDNAKNTVYLQMNSLKPEDTAVYYCAVDYYIYYFHYWGQGTQVTVSS | high polyreactivity
20 | QEQLQESGGGLVQAGGSLRLSCAASGSISQAWYMGWYRQAPGKERELVAAINVGAITYYADSVKGRFSISRDNAKNTVYLPMNSLTPEDTAVYYCAVDQYSEAYYDYWGQGTQATVSS | high polyreactivity
21 | QEQLQESGGGLVQEGGSLRLSCAASGNISPPADMGWYRQAPGKERELVASIGTGGTTNYADSVKGRFTISRDNAKNTVYLQMNSLKPDDTAVYYCAAVRYEYNPYDYWGQGTQVTVSS | low polyreactivity

Row | Sequence | polyreactivity (PSR sort gate)
22 | QEQLQESGGGMVQVGGTLRLSCAATGTIFIYGFLGWNRQAPGKERELVASINLGGITNYADSVKGRFTISRDNAKNTVYLQMISLKPEDTAVYYCAAYLVTGQNYGYWGQGTQVTVSS | low polyreactivity
23 | QEQLQESGSGLVQAGGSLRLICAASRNIFQDWVMGWYRKEPGKEPELVAAISPGAITYYADSVKGRFTISRDNAKNTVYLQTNSLKPEDTAVYYCGAYYIVEYLHGYWGQGTRVTVSS | low polyreactivity
24 | QEQLVESAGGLVQAGGSLRLSCAASGSTFYRYAMGWNRQAPGKERELVAAITSSGGSTYYADSVKGRFTISRDNAKNTVYLQMNRLKPEDTAVYYWNAVRRRQSDYWGQGTQVTVSS | high polyreactivity
25 | QEQLVESGGGLVQAGGSLRLSCAASGFTFWYYAMGWYRQAPGKEREFVAAISLGGGRTYYADSVKGRFTHSRDNAKNTVYLQMNSLKPEDTAVYYCAVDSGTYRSYRYDYCGQGTQVTVSS | high polyreactivity
26 | QEQLVESGGGLVQAGGSLRLSCAASGSIQPNAMGWYRQAPGKEREFVAAISRSGASTYYADSVKGRFTISRDNAKNTVYLQMNSLKPADTAVYYCAADFYYYNNNDYDYWGQGTQVTVSS | high polyreactivity
27 | QEQLVESGGGLVQAGGSLRLSCAPSGSIMYVYAMGWYRPAPGKERELVAVITSGGSTTYADSVKGRFTMSRDNAKNTVYLQMNSLKPEDTAVYYCAAVPYSVYGGDYWGQGTQVTVSS | low polyreactivity
28 | QFHLVESGGGLVQAGGSLRLTCAASGRTFAYYAMGWYRQAPGKEREMVAGITRNGGSTYYADSVKGRFTISRDNAKNTVYLQMNSLKPEDTAVYYCAAGFTTRRGEYNYWGKGTQVTVSS | high polyreactivity
29 | QFHLVETGRGLVQAGGSLRLSCAASGVTYSQYAMGWYRQAPGKERELVARISRRRGSTSYADSVKGRCTISRDNAKNTVYLQMNRMKPEDTAVYYCAKDSPSVYPGRFGNTGGYAYDYWGQGTQVTVSS | high polyreactivity
30 | QFKLVESGGVLVKEGGRLRLICAASGSTFDENDMGRYRQAPGKEMEIVAVIYIGTSTNYADSVKGRFTISRDNAKNTVYLQMNSLKPEDTAVYYCAADVPGSYLVAIVGNAFNYWGQGTQVTVSS | low polyreactivity
31 | QFQHVESGGGLVQAGGSLRLSCAASGNTFYVYAMGWYRQAPGKERELVAGITTSGGSTYYADSVKGRFTISRDNAKNTVYLQMNSLKTEDTAVYYCATDISTSYYYKYSSFYQYDSWGQGTQVTVSS | low polyreactivity
32 | QFQLEESGGGLVQAGGSIRLSCAASGFILDSYGMGWYRQAPGTERELVAAISQSDVSTYYADSVNGRYTISRDNAKNTVYLHMNSLKPEDTAVYYCAADRGGLRWFWQVLFDYWGQGTQVTVSS | low polyreactivity
33 | QFQLEESGGGLVQAGGSLRLSCAASGITFRRYTMGWYRQAPGKERELVATISLSDGNTYYADSVKGRFTISRDNAKNTVYYQMNSLKPEDTAVYYCNARHTWHQTYDYWGQGTQVTVSS | low polyreactivity
34 | QFQLEESGGGLVQAGGSLRLSCAASGSTFLRYAMGWYRQAPGKERELVAAITGRGTRTYYADSVKGRFTISRDNAKNTVYLQMNSLKPEDTAVYYCAAELSFTPRYYEGRIFYYWGQGTQVTVSS | high polyreactivity
35 | QFQLLDSGGGLVQAGGSLRLSSAPSGFTIIGYDMGWYRQAPVKERELVAAIDWSGGSTYYADSVKGRFTISRDNAKYSVDLQMHSLKPEDTAVYYCNAEWSSKRFTGDDYWGQGTQVTVSS | low polyreactivity
36 | QFQLLESGGGLVQAGGSLRLICAASGFICSLYAMGWYRPAPGKERELVATINRRGTSTFYADSVKGRFTISRDNAKNTVYLQMNSLKPEDTAVYYCNAYPGAAIRSTGRYDYWGQGTQVTVSS | low polyreactivity
37 | QFQLVDSVRGLVQAGVSLRLSCAASGRIFVKYVIGSYRQAPGTESQLVAANRSYGGSPYYADSVKGRFTISRDNAKNTVYLQMNSLKPEDTAVYYCAKRLHYSAPRYTEYDEWGHGTQVTVSS | high polyreactivity
38 | QFQLVESCGGLVQAGGSLRLSCAASGPIFKSNAMGCYRQAPGKERELVAAISGSGGRTYYAHSVKGRFTISRDNANNTVYLQMNSLKPEDTAVYYCNAGGSYYARGMDYWGQGTQVTVSS | high polyreactivity
39 | QFQLVESGGCLVQAGGSLRISSASSGSTLANYAMGWYRQAPGKEREFVAAINSGGSTYYADSVKGRFTISRDIAKNTVYLQMNSLKPEDTAVYYCAARYASPRYKSKMDYWGQGTQVTVSS | high polyreactivity
40 | QFQLVESGGGFVQAGGSLRLSGASSGIIFLANAMVWYRQSPGKEREFVAAISRSGSRTYDADSVKGRFTISRDHAKNSVYLQMNSVKPEDTAVYYCAAESPVLYYWGQGTQVTVSS | high polyreactivity
41 | QFQLVESGGGLDQAGGSLRLSCAASGFTLNRNAMGWYRQAPGKETELVAAITRGGRTYYADSVKGRFTISRDNAKNTVYLQMNSLKPEDTAVYYCARTVGYRTLLESDSWGQGTQVTVSS | high polyreactivity
